Data: paper PMC7583038

What was measured:
[1] = target: wild-type eel follicle-stimulating hormone receptor (eel)
[2] = target: wild-type eel follicle-stimulating hormone receptor (eel); remark: listed apart in the source

EC50 of the rec-eelFSH-stimulated cAMP response (HTRF) in transfected CHO-K1 cells, 30 min (eelFSHR-D540G (eel)): 0.359 µg/mL
EC50 of the rec-eelFSH-stimulated cAMP response (HTRF) in transfected CHO-K1 cells, 30 min [1]: 0.524 µg/mL
EC50 of the rec-eelFSH-stimulated cAMP response (HTRF) in transfected CHO-K1 cells, 30 min (eelFSHR-D540N (eel)): 0.544 µg/mL
EC50 of the rec-eelFSH-stimulated cAMP response (HTRF) in transfected CHO-K1 cells, 30 min (series with the inactivating mutants) [2]: 0.314 µg/mL
EC50 of the rec-eelFSH-stimulated cAMP response (HTRF) in transfected CHO-K1 cells, 30 min (eelFSHR-R546C (eel)): 0.385 µg/mL
Substance: recombinant eel follicle-stimulating hormone (ligand)
